Reference: patent US20200276130A1 (WISCONSIN ALUMNI RESEARCH FOUNDATION, published 2020)

Key:
[1] = molecular target: T1, endogenous IP3R1 (inositol 1,4,5-trisphosphate receptor 1) (human, UniProt Q14643 1-2758, limits assumed); experiment: anti-Flag M2 resin immunoprecipitation from MCF7 cells, Western blot
T1 construct: Endogenous protein co-precipitated from cell lysate; also called ITPR1

[2] = molecular target: T2, endogenous IP3R3 (inositol 1,4,5-trisphosphate receptor 3) (human, UniProt Q14573 1-2671); experiment: as above
T2 construct: Endogenous protein co-precipitated from cell lysate; also called ITPR3
T2 sequence (Q14573 whole entry): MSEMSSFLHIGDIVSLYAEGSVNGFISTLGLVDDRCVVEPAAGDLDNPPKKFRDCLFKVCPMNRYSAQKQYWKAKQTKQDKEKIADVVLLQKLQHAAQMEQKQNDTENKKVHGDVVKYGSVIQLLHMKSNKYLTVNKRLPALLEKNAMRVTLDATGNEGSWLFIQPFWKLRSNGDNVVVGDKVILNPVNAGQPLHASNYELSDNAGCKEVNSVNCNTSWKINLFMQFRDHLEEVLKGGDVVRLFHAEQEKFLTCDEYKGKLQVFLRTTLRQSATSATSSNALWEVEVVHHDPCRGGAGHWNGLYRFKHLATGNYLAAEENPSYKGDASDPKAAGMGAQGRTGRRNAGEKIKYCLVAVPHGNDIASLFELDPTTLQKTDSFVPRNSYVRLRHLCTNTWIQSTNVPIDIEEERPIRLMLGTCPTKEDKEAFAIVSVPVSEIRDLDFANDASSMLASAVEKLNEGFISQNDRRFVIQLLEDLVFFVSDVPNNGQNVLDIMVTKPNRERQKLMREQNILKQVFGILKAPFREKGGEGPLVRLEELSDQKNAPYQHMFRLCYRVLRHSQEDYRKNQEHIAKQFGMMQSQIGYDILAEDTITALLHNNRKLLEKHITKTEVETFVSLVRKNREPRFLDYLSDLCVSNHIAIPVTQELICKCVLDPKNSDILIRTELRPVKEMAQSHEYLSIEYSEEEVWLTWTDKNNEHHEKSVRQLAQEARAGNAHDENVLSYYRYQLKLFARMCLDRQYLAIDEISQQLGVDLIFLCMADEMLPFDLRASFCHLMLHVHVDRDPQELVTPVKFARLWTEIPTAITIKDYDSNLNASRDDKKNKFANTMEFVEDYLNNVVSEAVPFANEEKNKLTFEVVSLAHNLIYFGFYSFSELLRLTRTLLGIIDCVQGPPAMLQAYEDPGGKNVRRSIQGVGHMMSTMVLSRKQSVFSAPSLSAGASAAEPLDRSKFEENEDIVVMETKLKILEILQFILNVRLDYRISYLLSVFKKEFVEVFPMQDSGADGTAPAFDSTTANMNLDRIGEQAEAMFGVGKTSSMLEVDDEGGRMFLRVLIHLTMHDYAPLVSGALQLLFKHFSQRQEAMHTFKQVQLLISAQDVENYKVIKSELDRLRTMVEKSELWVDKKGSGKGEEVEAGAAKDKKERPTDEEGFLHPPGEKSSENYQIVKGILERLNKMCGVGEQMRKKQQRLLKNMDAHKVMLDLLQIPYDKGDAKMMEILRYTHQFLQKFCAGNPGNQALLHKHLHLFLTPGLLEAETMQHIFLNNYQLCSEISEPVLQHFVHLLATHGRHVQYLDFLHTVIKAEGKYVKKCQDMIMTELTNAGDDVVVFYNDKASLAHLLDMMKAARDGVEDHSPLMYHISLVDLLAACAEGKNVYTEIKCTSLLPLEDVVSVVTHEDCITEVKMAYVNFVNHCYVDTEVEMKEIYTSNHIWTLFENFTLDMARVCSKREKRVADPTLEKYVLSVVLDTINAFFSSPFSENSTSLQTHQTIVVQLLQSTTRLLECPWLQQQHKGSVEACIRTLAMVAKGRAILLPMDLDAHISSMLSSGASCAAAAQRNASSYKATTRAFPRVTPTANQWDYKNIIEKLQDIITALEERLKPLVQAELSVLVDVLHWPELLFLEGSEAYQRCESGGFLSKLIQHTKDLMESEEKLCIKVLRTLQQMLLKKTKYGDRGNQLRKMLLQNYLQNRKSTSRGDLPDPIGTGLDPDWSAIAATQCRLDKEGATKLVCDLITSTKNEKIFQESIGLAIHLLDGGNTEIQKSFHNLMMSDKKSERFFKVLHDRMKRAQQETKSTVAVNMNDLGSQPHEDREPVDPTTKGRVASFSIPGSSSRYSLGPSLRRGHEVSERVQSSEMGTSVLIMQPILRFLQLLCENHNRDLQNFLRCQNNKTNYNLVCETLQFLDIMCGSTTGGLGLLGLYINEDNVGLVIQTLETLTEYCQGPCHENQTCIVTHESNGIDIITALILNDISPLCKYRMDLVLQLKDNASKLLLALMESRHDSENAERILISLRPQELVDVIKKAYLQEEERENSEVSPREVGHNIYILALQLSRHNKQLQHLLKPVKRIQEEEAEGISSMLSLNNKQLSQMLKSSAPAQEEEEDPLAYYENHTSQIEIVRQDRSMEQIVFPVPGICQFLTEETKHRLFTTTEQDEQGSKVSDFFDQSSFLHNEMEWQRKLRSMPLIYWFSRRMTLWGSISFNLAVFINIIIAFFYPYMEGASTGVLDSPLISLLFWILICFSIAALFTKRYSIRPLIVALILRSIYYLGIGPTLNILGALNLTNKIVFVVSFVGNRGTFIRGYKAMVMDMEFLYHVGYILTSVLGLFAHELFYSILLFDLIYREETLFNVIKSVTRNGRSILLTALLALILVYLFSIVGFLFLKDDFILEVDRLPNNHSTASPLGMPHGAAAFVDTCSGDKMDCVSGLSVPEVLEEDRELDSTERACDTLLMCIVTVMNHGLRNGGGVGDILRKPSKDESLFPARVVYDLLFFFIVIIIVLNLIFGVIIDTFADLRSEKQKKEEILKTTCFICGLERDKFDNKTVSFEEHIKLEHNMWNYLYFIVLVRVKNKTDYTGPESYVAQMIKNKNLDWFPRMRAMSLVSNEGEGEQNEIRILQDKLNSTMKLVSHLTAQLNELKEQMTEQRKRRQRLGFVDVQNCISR

[3] = molecular target: T3, GST-CARM1 fusion protein (glutathione S-transferase tagged co-activator associated arginine methyltransferase … (UniProt Q86X55 1-608)); experiment: in vitro interaction assay, in vitro translated Flag-PKM2 truncation with GST-CARM1
T3 construct: Expressed in E. coli BL-21, purified on glutathione sepharose; also called GST tagged CARM1; not shown: glutathione S-transferase (GST) tag
T3 sequence (looked up): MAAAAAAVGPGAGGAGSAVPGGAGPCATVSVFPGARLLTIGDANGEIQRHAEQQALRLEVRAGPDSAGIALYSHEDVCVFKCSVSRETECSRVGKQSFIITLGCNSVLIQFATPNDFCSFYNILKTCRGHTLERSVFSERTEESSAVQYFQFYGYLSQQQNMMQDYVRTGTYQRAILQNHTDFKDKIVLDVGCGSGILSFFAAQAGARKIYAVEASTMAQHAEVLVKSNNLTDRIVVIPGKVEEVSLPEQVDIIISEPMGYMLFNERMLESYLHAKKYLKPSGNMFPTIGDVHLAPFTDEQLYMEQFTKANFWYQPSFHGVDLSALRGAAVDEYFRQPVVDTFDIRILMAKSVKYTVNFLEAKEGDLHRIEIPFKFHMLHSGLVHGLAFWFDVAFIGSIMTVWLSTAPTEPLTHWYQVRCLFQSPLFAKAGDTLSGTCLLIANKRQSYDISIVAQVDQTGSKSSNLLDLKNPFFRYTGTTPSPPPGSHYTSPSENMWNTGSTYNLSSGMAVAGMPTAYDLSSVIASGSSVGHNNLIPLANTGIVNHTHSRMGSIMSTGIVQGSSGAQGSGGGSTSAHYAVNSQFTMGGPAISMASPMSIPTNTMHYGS
Description: Flag-tagged full length PKM2 and its truncations constructs were translated by T7 Quick Coupled Translation/Transcription system (Promega). […] The beads were washed 4 times with binding buffer, and recombinant proteins were eluted with 500 μg/ml 3× Flag peptides. Samples were analyzed by SDS-PAGE and Western blotting.

[4] = molecular target: T4, endogenous HSPA9 (human, UniProt P38646 47-679); experiment: anti-Flag co-immunoprecipitation from MCF7 cell lysates, Western blot
T4 construct: Endogenous protein co-precipitated from cell lysate
T4 sequence (P38646 47-679 limits assumed): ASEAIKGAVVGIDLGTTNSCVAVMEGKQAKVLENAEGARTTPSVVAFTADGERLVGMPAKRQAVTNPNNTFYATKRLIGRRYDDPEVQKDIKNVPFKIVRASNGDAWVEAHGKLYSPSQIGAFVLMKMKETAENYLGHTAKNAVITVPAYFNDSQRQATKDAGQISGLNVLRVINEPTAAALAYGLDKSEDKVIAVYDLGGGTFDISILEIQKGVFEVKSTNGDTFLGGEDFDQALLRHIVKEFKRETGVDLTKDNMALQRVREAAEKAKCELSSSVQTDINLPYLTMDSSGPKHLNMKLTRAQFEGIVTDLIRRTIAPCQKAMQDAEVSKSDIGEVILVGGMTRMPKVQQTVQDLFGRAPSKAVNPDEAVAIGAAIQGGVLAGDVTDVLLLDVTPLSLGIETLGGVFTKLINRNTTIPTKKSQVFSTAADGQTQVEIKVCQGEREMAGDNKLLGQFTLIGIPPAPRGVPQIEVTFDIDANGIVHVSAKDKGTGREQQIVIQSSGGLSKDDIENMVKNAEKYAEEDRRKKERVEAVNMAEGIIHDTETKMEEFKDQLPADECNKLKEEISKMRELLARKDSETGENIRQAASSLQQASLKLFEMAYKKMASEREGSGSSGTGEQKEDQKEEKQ

B1: Flag-tagged PKM2^mut (R445K, R447K and R455K), methylation-defective PKM2 (enzyme)
chain: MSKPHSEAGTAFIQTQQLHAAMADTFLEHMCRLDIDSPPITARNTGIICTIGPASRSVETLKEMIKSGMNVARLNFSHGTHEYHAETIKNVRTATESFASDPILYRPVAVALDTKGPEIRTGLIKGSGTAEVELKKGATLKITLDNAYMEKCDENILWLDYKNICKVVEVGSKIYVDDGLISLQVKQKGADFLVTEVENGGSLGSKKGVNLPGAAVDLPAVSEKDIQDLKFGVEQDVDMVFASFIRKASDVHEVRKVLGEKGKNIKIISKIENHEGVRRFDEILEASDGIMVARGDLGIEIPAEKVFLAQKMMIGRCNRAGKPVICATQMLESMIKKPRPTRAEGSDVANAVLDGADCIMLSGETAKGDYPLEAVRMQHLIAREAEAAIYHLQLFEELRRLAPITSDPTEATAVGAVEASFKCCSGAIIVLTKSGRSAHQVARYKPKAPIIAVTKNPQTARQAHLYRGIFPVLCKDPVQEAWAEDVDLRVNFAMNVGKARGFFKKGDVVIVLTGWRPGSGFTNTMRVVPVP
notes: Stably expressed in MCF7 (and MDA-MB-231) PKM2 KO cells; precipitated with anti-Flag M2 resin; also called PKM2 R445/447/455K; not shown: left out
[1]
  binding result: no binding
[2]
  binding result: no binding

B2: truncated Flag-PKM2 with truncation of both the C domain and the N/A1 domain (enzyme)
chain: not shown
notes: In vitro translated; also called 48 (as printed, probably delta-8); not shown: Flag tag
[3]
  binding result: no binding

B3: Flag-tagged PKM1 (pyruvate kinase M1) (enzyme)
chain: not shown
notes: Purified recombinant protein in the GST pull-down; expressed in MCF7 or HEK293T PKM2 KO cells in the co-immunoprecipitations; also called Flag-PKM1; recombinant PKM1; not shown: Flag tag
[4]
  binding result: no binding
